Measurements from patent US20230134580A1.

Assays:
[1] = biological target: human TIGIT (T cell immunoreceptor with Ig and ITIM domains), expressed on cells (human) (UniProt Q495A1); test: whole cell binding assays, n=3 (FIG. 10A)
[2] = biological target: human TIGIT (T cell immunoreceptor with Ig and ITIM domains), expressed on cells (human) (UniProt Q495A1); test: flow cytometry (CytoFlex), whole cell binding to cells expressing human TIGIT, MFI of AlexaFlour 488; one representative of three experiments
[3] = biological target: recombinant cynomolgus TIGIT (cynomolgus monkey); test: ELISA on recombinant cyno-TIGIT
[4] = biological target: recombinant human TIGIT extracellular domain (ECD) (human) (UniProt Q495A1); test: ELISA on recombinant human TIGIT ECD
recombinant human TIGIT extracellular domain (ECD) (human), sequence (Q495A1 22-138 limits assumed): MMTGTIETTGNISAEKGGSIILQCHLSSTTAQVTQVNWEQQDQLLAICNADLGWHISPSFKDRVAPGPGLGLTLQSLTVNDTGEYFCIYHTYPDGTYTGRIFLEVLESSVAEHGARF

[5] = biological target: human TIGIT (T cell immunoreceptor with Ig and ITIM domains), expressed on cells (human) (UniProt Q495A1); test: cell-based or functional assay

human TIGIT (T cell immunoreceptor with Ig and ITIM domains), expressed on cells (human), sequence (Q495A1 22-244 limits assumed): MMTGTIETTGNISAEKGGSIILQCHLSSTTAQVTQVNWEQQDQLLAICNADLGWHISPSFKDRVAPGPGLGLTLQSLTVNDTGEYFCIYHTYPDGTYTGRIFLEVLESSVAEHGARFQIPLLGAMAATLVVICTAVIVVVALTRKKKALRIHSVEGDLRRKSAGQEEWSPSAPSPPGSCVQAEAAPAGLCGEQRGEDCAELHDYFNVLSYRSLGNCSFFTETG

In the case of “Reference Ab 2 (same amino acid sequences as Tiragolumab, U.S. 2017/0088613 A1) (antibody)”, the EC50 [1] is reported as 0.61 nM, the EC50 (read off the curve) [2] is reported as 0.5 nM and the EC50 (read off the curve) [3] is reported as 0.1 µg/mL. It also gave an EC50 (read off the curve) [4] of 0.1 µg/mL and an EC50, NFAT luciferase reporter assay (n=3) [5] of 0.72 nM.
